Laboratory results: PMC6981688

Legend:
[1] = NSL3 ubiquitination: Flag IP, anti-HA-ubiquitin WB, MG132; conditions: glycan gained; control: NSL3 alone / untreated
[2] = WB of histone marks in 293T; conditions: glycan lost; control: NSL3-3wt overexpression
[3] = Flag IP, anti-HA-ubiquitin WB, increasing OGT1, UBE2S, MG132; conditions: glycan lost; control: full-length NSL3wt
[4] = Flag IP, WB, increasing OGA; conditions: glycan lost; control: full-length NSL3wt
[5] = A549 colony formation; conditions: glycan lost; control: NSL3-3wt overexpression
[6] = Flag-OGT1 IP, WB for NSL3, MOF, MCRS1, PHF20, NSL1, NSL2; conditions: glycan lost; control: NSL3-3wt overexpression
[7] = Flag IP, anti-HA-ubiquitin WB, increasing OGT1, NSL3-3 truncation; conditions: glycan lost; control: NSL3-3wt

## NSL3 (nonspecific lethal protein 3): thiamet-G (TMG)
[1]
  degradation_or_half_life: decreases

## NSL3 (nonspecific lethal protein 3): Flag-NSL3-3 T755A
[2]
  other: reduction of global H4 acetylation/H3K4me2 by NSL3-3 overexpression: abolishes

## NSL3 (nonspecific lethal protein 3): OGT1 co-transfection
[1]
  degradation_or_half_life: increases

## NSL3 (nonspecific lethal protein 3): NSL3 T755A
[3]
  other: OGT1-dependent decrease of NSL3 ubiquitination: abolishes
[4]
  other: OGA-induced increase of NSL3 ubiquitination and UBE2S binding: decreases

## NSL3 (nonspecific lethal protein 3): NSL3-3mt (T755A)
[5]
  other: colony suppression by NSL3-3 overexpression: abolishes

## NSL3 (nonspecific lethal protein 3): NSL3-3 T755A
[6]
  other: loss of NSL complex subunits from Flag-OGT1 IP caused by NSL3-3: abolishes
[7]
  degradation_or_half_life: changes
